“And” between values parts separate entries of the source, which are not always exact repeats. Equal entries are not always repeated.
Key:
Test in all cases: purified protein, by the assay type
Settings in all cases: other: O2 consumption, 5.0 mM ascorbate, pH 6.0, 37 °C
[1] = substrate: CC(=O)NCC(=O)NCC(=O)O
[2] = substrate: CC(C)(C)OC(=O)NCC(=O)O
[3] = substrate: CC(C)CCC(=O)NCC(=O)O
[4] = substrate: COc1ccc(C(=O)NCC(=O)O)cc1
[5] = substrate: C[C@@H](NC(=O)OCc1ccccc1)C(=O)O
[6] = substrate: Cc1ccc(C(=O)NCC(=O)O)cc1
[7] = substrate: Cc1cccc(C(=O)NCC(=O)O)c1
[8] = substrate: Cc1ccccc1C(=O)NCC(=O)O
[9] = substrate: Nc1ccc(C(=O)NCC(=O)O)cc1
[10] = substrate: O=C(O)CNC(=O)/C=C/c1ccco1
[11] = substrate: O=C(O)CNC(=O)C1CC1c1ccccc1
[12] = substrate: O=C(O)CNC(=O)CCCCCc1ccccc1
[13] = substrate: O=C(O)CNC(=O)CCCCc1ccccc1
[14] = substrate: O=C(O)CNC(=O)CCc1ccccc1
[15] = substrate: O=C(O)CNC(=O)CNC(=O)c1ccccc1
[16] = substrate: O=C(O)CNC(=O)CSc1ccccc1
[17] = substrate: O=C(O)CNC(=O)Cc1ccccc1
[18] = substrate: O=C(O)CNC(=O)OCc1ccccc1
[19] = substrate: O=C(O)CNC(=O)SCc1ccccc1
[20] = substrate: O=C(O)CNC(=O)[C@@H]1CCC(=O)N1
[21] = substrate: O=C(O)CNC(=O)c1ccc(Br)cc1
[22] = substrate: O=C(O)CNC(=O)c1ccc(Cl)cc1
[23] = substrate: O=C(O)CNC(=O)c1ccc(O)cc1
[24] = substrate: O=C(O)CNC(=O)c1ccc([N+](=O)[O-])cc1
[25] = substrate: O=C(O)CNC(=O)c1ccccc1I
[26] = substrate: O=C(O)CNC(=O)c1ccccc1O
[27] = substrate: O=C(O)CNC(=O)c1ccco1

B1: rat PAM (Rattus norvegicus) (protein)
chain: FKETTRSFSNECLGTIGPVTPLDASDFALDIRMPGVTPKESDTYFCMSMRLPVDEEAFVIDFKPRASMDTVHHMLLFGCNMPSSTGSYWFCDEGTCTDKANILYAWARNAPPTRLPKGVGFRVGGETGSKYFVLQVHYGDISAFRDNHKDCSGVSVHLTRVPQPLIAGMYLMMSVDTVIPPGEKVVNADISCQYKMYPMHVFAYRVHTHHLGKVVSGYRVRNGQWTLIGRQNPQLPQAFYPVEHPVDVTFGDILAARCVFTGEGRTEATHIGGTSSDEMCNLYIMYYMEAKYALSFMTCTKNVAPDMFRTIPAEANIPIPVKPDMVMMHGHHKEAENKEKSALMQQPKQGEEEVLEQDFHVEEELDWPGVYLLPGQVSGVALDSKNNLVIFHRGDHVWDGNSFDSKFVYQQRGLGPIEEDTILVIDPNNAEILQSSGKNLFYLPHGLSIDTDGNYWVTDVALHQVFKLDPHSKEGPLLILGRSMQPGSDQNHFCQPTDVAVEPSTGAVFVSDGYCNSRIVQFSPSGKFVTQWGEESSGSSPRPGQFSVPHSLALVPHLDQLCVADRENGRIQCFKTDTKEFVREIKHASFGRNVFAISYIPGFLFAVNGKPYFGDQEPVQGFVMNFSSGEIIDVFKPVRKHFDMPHDIVASEDGTVYIGDAHTNTVWKFTLTEKMEHRSV
B1 gave a kcat [1] of 8.9 ± 0.2 s⁻¹, a kcat/Km [1] of 5900 ± 200 M⁻¹ s⁻¹ and a Km [2] of 3700 ± 200 µM. The kcat [2] was 6.3 ± 0.3 s⁻¹, the kcat/Km [2] was 1700 ± 50 M⁻¹ s⁻¹ and the Km [3] was 280 ± 30 µM. For the same protein, the kcat [3] was 6.6 ± 0.3 s⁻¹, the kcat/Km [3] was 23000 ± 2000 M⁻¹ s⁻¹ and the Km [4] was 820 ± 40 µM. For the same protein, the kcat [4] was 5.3 ± 0.08 s⁻¹, the kcat/Km [4] was 6400 ± 200 M⁻¹ s⁻¹ and the Km [5] was 35000 ± 5000 µM. The kcat [5] was 1.4 ± 0.1 s⁻¹, the kcat/Km [5] was 41 ± 5 M⁻¹ s⁻¹ and the Km [6] was 1800 ± 200 µM. For the same protein, the kcat [6] was 5.7 ± 0.3 s⁻¹, the kcat/Km [6] was 3200 ± 200 M⁻¹ s⁻¹ and the Km [7] was 1400 ± 100 µM. It also gave a kcat [7] of 6.4 ± 0.2 s⁻¹, a kcat/Km [7] of 4700 ± 200 M⁻¹ s⁻¹ and a Km [8] of 4300 ± 300 µM. For the same protein, the kcat [8] was 7.9 ± 0.3 s⁻¹, the kcat/Km [8] was 1800 ± 40 M⁻¹ s⁻¹ and the Km [9] was 2600 ± 200 µM. It also gave a kcat [9] of 5.6 ± 0.2 s⁻¹, a kcat/Km [9] of 2200 ± 100 M⁻¹ s⁻¹ and a Km [10] of 1200 ± 100 µM. For the same protein, the kcat [10] was 3.4 ± 0.1 s⁻¹, the kcat/Km [10] was 2800 ± 100 M⁻¹ s⁻¹ and the Km [11] was 900 ± 70 µM. For the same protein, the kcat [11] was 10 ± 0.3 s⁻¹, the kcat/Km [11] was 11000 ± 700 M⁻¹ s⁻¹ and the Km [12] was 0.051 ± 0.007 0.043 ± 0.005 mM. For the same protein, the kcat [12] was 11 ± 0.4 s⁻¹, the kcat/Km [12] was 200000 ± 20000 M⁻¹ s⁻¹ and the kcat [13] was 12 ± 0.4 s⁻¹. For the same protein, the kcat/Km [13] was 76000 ± 4000 M⁻¹ s⁻¹, the Km [14] was 0.94 ± 0.1 0.55 ± 0.039 mM and the kcat [14] was 9.9 ± 0.4 s⁻¹. It also gave a kcat/Km [14] of 11000 ± 600 M⁻¹ s⁻¹, a Km [15] of 78 ± 11 µM and a kcat [15] of 12 ± 0.8 s⁻¹. It also gave a kcat/Km [15] of 160000 ± 10000 M⁻¹ s⁻¹, a Km [16] of 190 ± 20 µM and a kcat [16] of 4.6 ± 0.2 s⁻¹. It also gave a kcat/Km [16] of 25000 ± 1000 M⁻¹ s⁻¹, a Km [17] of 160 ± 5 µM and a kcat [17] of 7.4 s⁻¹. For the same protein, the kcat/Km [17] was 46000 M⁻¹ s⁻¹, the Km [18] was 590 ± 20 µM and the Km [19] was 59 ± 7 µM. For the same protein, the kcat [19] was 0.69 ± 0.022 s⁻¹, the kcat/Km [19] was 12000 ± 1400 M⁻¹ s⁻¹ and the Km [20] was 300 µM and 310 ± 30 µM. The Km [21] was 520 ± 60 µM, the kcat/Km [21] was 4900 ± 400 M⁻¹ s⁻¹ and the Km [22] was 620 ± 40 µM. It also gave a kcat [22] of 4.1 ± 0.1 s⁻¹, a kcat/Km [22] of 6600 ± 200 M⁻¹ s⁻¹ and a Km [23] of 1700 ± 100 µM. It also gave a kcat [23] of 5.8 ± 0.1 s⁻¹, a kcat/Km [23] of 3500 ± 200 M⁻¹ s⁻¹ and a Km [24] of 470 ± 10 µM. It also gave a kcat [24] of 4.2 ± 0.04 s⁻¹, a kcat/Km [24] of 8900 ± 200 M⁻¹ s⁻¹ and a Km [25] of 3400 ± 400 µM. For the same protein, the kcat [25] was 3.1 ± 0.1 s⁻¹, the kcat/Km [25] was 910 ± 70 M⁻¹ s⁻¹ and the kcat [26] was 4.9 ± 0.05 s⁻¹. The kcat/Km [26] was 7100 ± 100 M⁻¹ s⁻¹, the Km [27] was 2700 ± 100 µM and the kcat [27] was 7.5 ± 0.07 s⁻¹. For the same protein, the kcat/Km [27] was 2800 ± 100 M⁻¹ s⁻¹.

— article PMC2668526 (Bioorganic & medicinal chemistry, 2008)
